The numbers were not newly measured in PMC11581309, which cites them from elsewhere.

For data set [1], the target named is CDH1 (Gallus gallus) (UniProt P08641).
Data set [2] concerns the target CDH1 (Mus musculus) (UniProt P09803).
The target of data set [3] is CDH1 (Homo sapiens) (UniProt P12830).
Data set [4] has as its target CDH2 (Gallus gallus) (UniProt P10288).
Data set [5] deals with CDH2 (Mus musculus) (UniProt P15116).
The target of data set [6] is CDH2 (Homo sapiens) (UniProt P19022).

Take CDH1 (from UniProt P08641): the Kd (commonly the equilibrium constant for the complex coming apart) in data set [1] was 110 µM.
On to CDH1 (from UniProt P09803), for which the Kd in data set [2] is 160 µM.
Turning to CDH1 (from UniProt P12830), in data set [3], the dissociation constant (Kd) is 217 µM.
In the case of CDH2 (from UniProt P10288), the Kd in data set [4] is 20.4 µM.
As to CDH2 (from UniProt P15116), the Kd in data set [5] was 22.6 µM.
With CDH2 (from UniProt P19022), in data set [6], the Kd was 22.1 µM.
